From patent publication US20240058465A1 (SUTRO BIOPHARMA, published 2024)

Legend:
[1] = target: T1, human ROR1 (hROR1) expressed on cells (human, UniProt Q01973 30-937); assay: flow cytometry, HCT116-hROR1 cells
T1 construct: Mino cells are the target positive cells of the killing assay; also called receptor tyrosine kinase like orphan receptor 1; HCT 116-hROR1

human ROR1-ECD = target: T2, human ROR1-ECD (human, UniProt Q01973 30-406); assay: SPR (Biacore), antibody captured by anti-Fc, human ROR1-ECD analyte
T2 construct: Bought protein; also called hROR1; ROR1-extracellular domain

[2] = target: T1, human ROR1 (hROR1) expressed on cells; assay: cell-based or functional assay
[3] = target: receptor tyrosine kinase orphan receptor 1 (ROR1) on Ntera-2 cells (human, UniProt Q01973 30-937); assay: cell-based or functional assay

B1: SRP2188-B07 (antibody, IgG1, V domains shown)
VH: EVQLVESGGGLVQPGGSLRLSCAASGFNIHSHDIHWVRQAPGKGLEWVGWINPDDGDTYYADSVKGRFAISADTSKNTAYLQMNSLRAEDTAVYYCARDYGVFDYWGRGTLVTVSS
VL: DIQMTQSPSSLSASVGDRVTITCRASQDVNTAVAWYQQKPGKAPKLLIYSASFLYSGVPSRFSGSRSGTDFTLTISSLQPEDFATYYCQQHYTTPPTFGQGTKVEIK
notes: IgG1 with trastuzumab LC; HIS- and FLAG-tagged; cell-free expressed
Bmax (MFI) [1]: 8760 MFI
Kd [1]: 0.07 nM
Kd (human ROR1-ECD): 0.221 nM
koff (human ROR1-ECD): 0.000194 s⁻¹
kon (human ROR1-ECD): 880000 M⁻¹ s⁻¹
Mino Nb-PBD, drug-conjugated 2° antibody Cell Killing IC50 [2]: 0.0014 nM
Mino Nb-PBD, drug-conjugated 2° antibody Cell Killing Span [2]: 72%

B2: SRP2188-F06 (antibody, IgG1, V domains shown)
VH: EVQLVESGGGLVQPGGSLRLSCAASGFNILDYDIHWVRQAPGKGLEWVGGIDPDDGATDYADSVKGRFTISADTSKNTAYLQMNSLRAEDTAVYYCARDYGVFDYWGQGTLVTVSS
VL: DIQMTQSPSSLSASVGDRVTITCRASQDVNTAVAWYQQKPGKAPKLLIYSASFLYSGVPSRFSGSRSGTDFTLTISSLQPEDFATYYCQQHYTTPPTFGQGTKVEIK
notes: as for B1
Bmax (MFI) [1]: 10200 MFI
Kd [1]: 0.03 nM
Kd (human ROR1-ECD): 0.384 nM
koff (human ROR1-ECD): 0.000357 s⁻¹
kon (human ROR1-ECD): 931000 M⁻¹ s⁻¹
Mino Nb-PBD, drug-conjugated 2° antibody Cell Killing IC50 [2]: 0.00055 nM
Mino Nb-PBD, drug-conjugated 2° antibody Cell Killing Span [2]: 75%

B3: SRP2188-G03 (antibody, IgG1, V domains shown)
VH: EVQLVESGGGLVQPGGSLRLSCAASGFNIVDYDIHWVRQAPGKGLEWVVGIDPRDGSTDYADSVKGRFTISADTSKNTAYLQMNSLRAEDTAVYYCARDFGVFDYWGQGTLVTVSS
VL: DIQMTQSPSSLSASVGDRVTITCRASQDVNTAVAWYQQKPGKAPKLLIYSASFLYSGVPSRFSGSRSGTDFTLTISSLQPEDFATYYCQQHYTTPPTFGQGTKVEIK
notes: as for B1
Bmax (MFI) [1]: 8960 MFI
Kd [1]: 0.03 nM
Kd (human ROR1-ECD): 0.373 nM
koff (human ROR1-ECD): 0.000316 s⁻¹
kon (human ROR1-ECD): 846000 M⁻¹ s⁻¹
Mino Nb-PBD, drug-conjugated 2° antibody Cell Killing IC50 [2]: 0.00097 nM
Mino Nb-PBD, drug-conjugated 2° antibody Cell Killing Span [2]: 70%

B4: SRP2188-F08 (antibody, IgG1, V domains shown)
VH: EVQLVESGGGLVQPGGSLRLSCAASGFNIPDFEIHWVRQAPGKGLEWVARIEPDDGATDYADSVKGRFTISADTSKNTAYLQMNSLRAEDTAVYYCARDYGVFDYWGQGTLVTVSS
VL: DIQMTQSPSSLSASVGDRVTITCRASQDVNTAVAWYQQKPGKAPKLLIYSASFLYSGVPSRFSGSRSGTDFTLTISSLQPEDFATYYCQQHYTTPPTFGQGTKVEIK
notes: as for B1
Bmax (MFI) [1]: 9030 MFI
Kd [1]: 0.02 nM
Kd (human ROR1-ECD): 0.428 nM
koff (human ROR1-ECD): 0.000422 s⁻¹
kon (human ROR1-ECD): 987000 M⁻¹ s⁻¹
Mino Nb-PBD, drug-conjugated 2° antibody Cell Killing IC50 [2]: 0.00071 nM
Mino Nb-PBD, drug-conjugated 2° antibody Cell Killing Span [2]: 75%

B5: SRP2188-E04 (antibody, IgG1, V domains shown)
VH: EVQLVESGGGLVQPGGSLRLSCAASGFNISDYDIHWVRQAPGKGLEWVAGIDPQDGSTDYADSVKGRFTISADTSKNTAYLQMNSLRAEDAAVYYCARDFGVFDYWGQGTLVTVSS
VL: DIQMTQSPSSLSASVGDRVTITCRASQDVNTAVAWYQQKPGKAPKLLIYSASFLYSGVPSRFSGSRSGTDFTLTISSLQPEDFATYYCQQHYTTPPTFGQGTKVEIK
notes: as for B1
Bmax (MFI) [1]: 9860 MFI
Kd [1]: 0.03 nM
Kd (human ROR1-ECD): 0.604 nM
koff (human ROR1-ECD): 0.000468 s⁻¹
kon (human ROR1-ECD): 775000 M⁻¹ s⁻¹
Mino Nb-PBD, drug-conjugated 2° antibody Cell Killing IC50 [2]: 0.00087 nM
Mino Nb-PBD, drug-conjugated 2° antibody Cell Killing Span [2]: 66%

B6: SRP2188-D06 (antibody, IgG1, V domains shown)
VH: EVQLVESGGGLVQPGGSLRLSCAASGFNIRDYDIHWVRQAPGKGLEWVGGIDPNDGATDYADSVKGRFTISADTSKNTAYLQMNSLRAEDTAVYYCARDYGVFDYWGQGTLVTVSS
VL: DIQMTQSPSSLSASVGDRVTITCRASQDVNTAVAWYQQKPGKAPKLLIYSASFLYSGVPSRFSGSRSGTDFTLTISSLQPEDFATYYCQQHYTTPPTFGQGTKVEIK
notes: as for B1
Bmax (MFI) [1]: 9810 MFI
Kd [1]: 0.04 nM
Kd (human ROR1-ECD): 0.628 nM
koff (human ROR1-ECD): 0.000563 s⁻¹
kon (human ROR1-ECD): 897000 M⁻¹ s⁻¹
Mino Nb-PBD, drug-conjugated 2° antibody Cell Killing IC50 [2]: 0.0015 nM
Mino Nb-PBD, drug-conjugated 2° antibody Cell Killing Span [2]: 69%

B7: SRP2188-E03 (antibody, IgG1, V domains shown)
VH: EVQLVESGGGLVQPGGSLRLSCAASGFNIRDYDIHWVRQAPGKGLEWVAGIDPDDGSTDYADSVKGRFTISADTSKNTAYLQMNSLRAEDTAVYYCARDYGVYDYWGQGTLVTVSS
VL: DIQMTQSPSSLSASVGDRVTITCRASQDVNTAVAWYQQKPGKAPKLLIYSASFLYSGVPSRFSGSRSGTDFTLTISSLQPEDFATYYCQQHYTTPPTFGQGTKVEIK
notes: as for B1
Bmax (MFI) [1]: 10300 MFI
Kd [1]: 0.02 nM
Kd (human ROR1-ECD): 0.464 nM
koff (human ROR1-ECD): 0.000333 s⁻¹
kon (human ROR1-ECD): 718000 M⁻¹ s⁻¹
Mino Nb-PBD, drug-conjugated 2° antibody Cell Killing IC50 [2]: 0.0013 nM
Mino Nb-PBD, drug-conjugated 2° antibody Cell Killing Span [2]: 65%

B8: SRP2188-C09 (antibody, IgG1, V domains shown)
VH: EVQLVESGGGLVQPGGSLRLSCAASGFNINSYDIHWVRQAPGKGLEWVGWINPHDGDTYYADSVTGRFTISADTSKNTAYLQMNSLRAEDTAVYYCARDYGVFDYWGQGTLVTVSS
VL: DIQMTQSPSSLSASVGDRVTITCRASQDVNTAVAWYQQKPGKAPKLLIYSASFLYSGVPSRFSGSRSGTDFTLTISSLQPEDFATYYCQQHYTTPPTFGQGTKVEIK
notes: as for B1
Bmax (MFI) [1]: 9080 MFI
Kd [1]: 0.03 nM
Kd (human ROR1-ECD): 0.504 nM
koff (human ROR1-ECD): 0.00042 s⁻¹
kon (human ROR1-ECD): 833000 M⁻¹ s⁻¹
Mino Nb-PBD, drug-conjugated 2° antibody Cell Killing IC50 [2]: 0.00091 nM
Mino Nb-PBD, drug-conjugated 2° antibody Cell Killing Span [2]: 71%

B9: SRP2188-E01 (antibody, IgG1, V domains shown)
VH: EVQLVESGGGLVQPGGSLRLSCAASGFNIGDYDIHWVRQAPGKGLEWVVGIDPQDGATDYADSVKGRFTISADTSKNTAYLQMNSLRAEDTAVYYCARDYGVFDYWGQGTLVTVSS
VL: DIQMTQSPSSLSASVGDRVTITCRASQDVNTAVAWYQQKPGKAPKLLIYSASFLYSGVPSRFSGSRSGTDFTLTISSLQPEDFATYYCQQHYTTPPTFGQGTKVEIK
notes: as for B1
Bmax (MFI) [1]: 9370 MFI
Kd [1]: 0.06 nM
Kd (human ROR1-ECD): 0.827 nM
koff (human ROR1-ECD): 0.000387 s⁻¹
kon (human ROR1-ECD): 468000 M⁻¹ s⁻¹
Mino Nb-PBD, drug-conjugated 2° antibody Cell Killing IC50 [2]: 0.0015 nM
Mino Nb-PBD, drug-conjugated 2° antibody Cell Killing Span [2]: 69%

B10: SRP2188-D04 (antibody, IgG1, V domains shown)
VH: EVQLVESGGGLVQPGGSLRLSCAASGFNISDYDIHWVRQAPGKGLEWVGGIDPADGSTDYADSVKGRFTISADTSKNTAYLQMNSLRAEDTAVYYCARDYGVYDYWGQGTLVTVSS
VL: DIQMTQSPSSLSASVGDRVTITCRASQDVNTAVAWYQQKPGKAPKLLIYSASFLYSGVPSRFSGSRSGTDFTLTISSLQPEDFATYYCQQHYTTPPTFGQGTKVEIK
notes: IgG1 with trastuzumab LC; HIS- and FLAG-tagged; cell-free expressed in the screen; also called mAb 42
Bmax (MFI) [1]: 9690 MFI
Kd [1]: 0.04 nM
Kd (human ROR1-ECD): 0.426 nM
koff (human ROR1-ECD): 0.000423 s⁻¹
kon (human ROR1-ECD): 994000 M⁻¹ s⁻¹
Mino Nb-PBD, drug-conjugated 2° antibody Cell Killing IC50 [2]: 0.0014 nM
Mino Nb-PBD, drug-conjugated 2° antibody Cell Killing Span [2]: 69%

B11: SRP2188-F11 (antibody, IgG1, V domains shown)
VH: EVQLVESGGGLVQPGGSLRLSCAASGFNITGYDIHWVRQAPGKGLEWVGGIDPEDGATDYADSVKGRFTISADTSKNTAYLQMNSLRAEDTAVYYCARDYGVFDYWGQGTLVTVSS
VL: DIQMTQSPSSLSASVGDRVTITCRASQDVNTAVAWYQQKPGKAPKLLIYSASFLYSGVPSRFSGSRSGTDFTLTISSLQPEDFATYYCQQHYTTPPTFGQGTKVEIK
notes: as for B1
Bmax (MFI) [1]: 9480 MFI
Kd [1]: 0.03 nM
Kd (human ROR1-ECD): 0.313 nM
koff (human ROR1-ECD): 0.000249 s⁻¹
kon (human ROR1-ECD): 794000 M⁻¹ s⁻¹
Mino Nb-PBD, drug-conjugated 2° antibody Cell Killing IC50 [2]: 0.00099 nM
Mino Nb-PBD, drug-conjugated 2° antibody Cell Killing Span [2]: 68%

B12: SRP2188-D09 (antibody, IgG1, V domains shown)
VH: EVQLVESGGGLVQPGGSLRLSCAASGFNIRDYDIHWVRQAPGKGLEWVVGIDPGDGSTDYADSVKGRFTISADTSKNTAYLQMNSLRAEDTAVYYCARDFGVFDYWGQGTLVTVSS
VL: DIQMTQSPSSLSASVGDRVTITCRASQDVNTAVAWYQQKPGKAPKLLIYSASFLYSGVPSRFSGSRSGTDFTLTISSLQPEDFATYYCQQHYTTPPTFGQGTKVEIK
notes: as for B1
Bmax (MFI) [1]: 8970 MFI
Kd [1]: 0.06 nM
Kd (human ROR1-ECD): 0.366 nM
koff (human ROR1-ECD): 0.00028 s⁻¹
kon (human ROR1-ECD): 766000 M⁻¹ s⁻¹
Mino Nb-PBD, drug-conjugated 2° antibody Cell Killing IC50 [2]: 0.0013 nM
Mino Nb-PBD, drug-conjugated 2° antibody Cell Killing Span [2]: 70%

B13: SRP2188-D03 (antibody, IgG1, V domains shown)
VH: EVQLVESGGGLVQPGGSLRLSCAASGFNISDYDIHWVRQAPGKGLEWVGGIDPHDGSTDYADSVKGRFTISADTSKNTAYLQMNSLRAEDTAVYYCARDYGVYDYWGQGTLVTVSS
VL: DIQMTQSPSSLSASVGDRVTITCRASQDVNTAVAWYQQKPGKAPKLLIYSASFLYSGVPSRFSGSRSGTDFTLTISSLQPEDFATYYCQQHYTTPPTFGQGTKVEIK
notes: as for B1
Bmax (MFI) [1]: 9110 MFI
Kd [1]: 0.04 nM
Kd (human ROR1-ECD): 0.838 nM
koff (human ROR1-ECD): 0.00055 s⁻¹
kon (human ROR1-ECD): 656000 M⁻¹ s⁻¹
Mino Nb-PBD, drug-conjugated 2° antibody Cell Killing IC50 [2]: 0.00089 nM
Mino Nb-PBD, drug-conjugated 2° antibody Cell Killing Span [2]: 72%

B14: SRP2188-G02 (antibody, IgG1, V domains shown)
VH: EVQLVESGGGLVQPGGSLRLSCAASGFNIVGYDIHWVRQAPSKGLEWVGGIDPNDGATDYADSVKGRFTISADTSKNTAYLQMNSLRAEDTAVYYCARDYGVFDYWGQGTLVTVSS
VL: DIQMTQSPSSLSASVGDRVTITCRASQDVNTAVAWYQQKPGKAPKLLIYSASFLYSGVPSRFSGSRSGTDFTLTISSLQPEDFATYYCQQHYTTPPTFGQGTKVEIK
notes: as for B1
Bmax (MFI) [1]: 8920 MFI
Kd [1]: 0.02 nM
Kd (human ROR1-ECD): 0.49 nM
koff (human ROR1-ECD): 0.000443 s⁻¹
kon (human ROR1-ECD): 905000 M⁻¹ s⁻¹
Mino Nb-PBD, drug-conjugated 2° antibody Cell Killing IC50 [2]: 0.00047 nM
Mino Nb-PBD, drug-conjugated 2° antibody Cell Killing Span [2]: 74%

B15: Conjugate 22 (D04-Y180/F404-LP11) (antibody, human IgG1, kappa)
heavy: MEVQLVESGGGLVQPGGSLRLSCAASGFNISDYDIHWVRQAPGKGLEWVGGIDPADGSTDYADSVKGRFTISADTSKNTAYLQMNSLRAEDTAVYYCARDYGVYDYWGQGTLVTVSSASTKGPSVFPLAPSSKSTSGGTAALGCLVKDYFPEPVTVSWNSGALTSGVHTFPAVLQSSGLSLSSVVTVPSSSLGTQTYICNVNHKPSNTKVDKKVEPKSCDKTHTCPPCPAPELLGGPSVFLFPPKPKDTLMISRTPEVTCVVVDVSHEDPEVKFNWYVDGVEVHNAKTKPREEQYNSTYRVVSVLTVLHQDWLNGKEYKCKVSNKALPAPIEKTISKAKGQPREPQVYTLPPSREEMTKNQVSLTCLVKGFYPSDIAVEWESNGQPENNYKTTPPVLDSDGSFLYSKLTVDKSRWQQGNVFSCSVMHEALHNHYTQKSLSLSPGK
light: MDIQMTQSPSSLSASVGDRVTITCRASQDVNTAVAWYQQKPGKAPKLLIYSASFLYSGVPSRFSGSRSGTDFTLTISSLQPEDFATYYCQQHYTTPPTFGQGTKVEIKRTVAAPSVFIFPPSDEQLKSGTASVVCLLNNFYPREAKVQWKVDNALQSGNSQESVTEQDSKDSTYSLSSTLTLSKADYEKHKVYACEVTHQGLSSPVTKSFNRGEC
modifications: pAMF at Y180 and F404 (EU), each linked to LP11
cell killing EC50, NTERA-2 cells [3]: > 10 nM
cell killing Span, NTERA-2 cells [3]: < 20%

B16: Conjugate 1 (D04-Y180/F404-LP1) (antibody, human IgG1, kappa)
heavy: MEVQLVESGGGLVQPGGSLRLSCAASGFNISDYDIHWVRQAPGKGLEWVGGIDPADGSTDYADSVKGRFTISADTSKNTAYLQMNSLRAEDTAVYYCARDYGVYDYWGQGTLVTVSSASTKGPSVFPLAPSSKSTSGGTAALGCLVKDYFPEPVTVSWNSGALTSGVHTFPAVLQSSGLSLSSVVTVPSSSLGTQTYICNVNHKPSNTKVDKKVEPKSCDKTHTCPPCPAPELLGGPSVFLFPPKPKDTLMISRTPEVTCVVVDVSHEDPEVKFNWYVDGVEVHNAKTKPREEQYNSTYRVVSVLTVLHQDWLNGKEYKCKVSNKALPAPIEKTISKAKGQPREPQVYTLPPSREEMTKNQVSLTCLVKGFYPSDIAVEWESNGQPENNYKTTPPVLDSDGSFLYSKLTVDKSRWQQGNVFSCSVMHEALHNHYTQKSLSLSPGK
light: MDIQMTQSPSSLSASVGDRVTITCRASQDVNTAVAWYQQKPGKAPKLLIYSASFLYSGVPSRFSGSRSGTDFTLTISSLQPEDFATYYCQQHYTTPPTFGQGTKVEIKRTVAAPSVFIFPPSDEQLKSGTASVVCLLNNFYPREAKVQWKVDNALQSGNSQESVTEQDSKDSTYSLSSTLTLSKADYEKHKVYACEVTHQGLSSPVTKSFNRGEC
modifications: pAMF at Y180 and F404 (EU), each linked to LP1
cell killing EC50, NTERA-2 cells [3]: 0.085 nM
cell killing Span, NTERA-2 cells [3]: 56%
